# Results taken from CN107973850A.
# B1: 重组猪瘟病毒E2蛋白猪源化单克隆抗体rHQ06 Sw (antibody, V domains shown)
# VH: QVQLQQSGGGLVQPKGSLKLSCAASGFTFNNNAMDWVRQAPGKGLEWVARIRTKSNYYATSYADSVKDRFTISRDDSQSMLYLQMNNLKTEDTAIYFCVREGYYAWFAYWGQGTLVTVSA
# VL: DIVLTQTPSSLAVSIGEKVTMSCKSSQSLLYSRNQKNYLAWYQQKPGQFPKLLIYWASTRESGVPDRFTGSGSGTDFTLTISSVKAEDLAVYYCQQYYSYPYTFGGGTKLEIKR
# Key:
# [1] = target: CHO细胞表达的CSFV石门株E2蛋白 (classical swine fever virus, Shimen strain)
# [2] = target: CSFV感染细胞的E2蛋白 (CSFV石门株病毒的E2蛋白) (classical swine fever virus, Shimen strain); assay: cell-based or functional assay
binder,measurement,setting,value
B1,Kd,[1],13.1 nM
same,kon,[1],98400 M⁻¹ s⁻¹
same,"中和效价 (病毒中和试验, IFA)",[2],12
